This note sets out measurements from PMC12464994, “Quantification of Membrane Protein Conformational Free Energy from Mutations and a Single Atom” (Journal of the American Chemical Society, 2025).

The chains are these.
B2: 6FW-EmrE^W63 (EmrE W31F/W45F/W76F labeled with 6-fluoro-tryptophan at Trp63) (natural protein, E. coli)
chain: MNPYIYLGGAILAEVIGTTLMKFSEGFTRLFPSVGTIICYCASFFLLAQTLAYIPTGIAYAIWSGVGIVLISLLSFGFFGQRLDLPAIIGMMLICAGVLIINLLSRSTPH
modifications: 6-fluoro-tryptophan at Trp63
notes: EmrE, small multidrug resistance (SMR) transporter of E. coli; only Trp63 kept of the four tryptophans; also called 6FW-labeled EmrE^W63; source: E. coli BL21(DE3), M9 medium with glyphosate and fluoro-indole, purified (amylose column, TEV cleavage, SEC in DDM)

Holding throughout (assay): 19F NMR spectroscopy (one-dimensional spectra and 19F/19F ZZ-exchange/NOESY); proteins alone or mixed in DDM (1 h, 37 °C, 10 mM DTT) at stated molar ratios, reconstituted in 14:0-PC/6:0-PC isotropic bicelles (q = 0.33); pH 5.6; 37 °C; 1-2 mM protein; 150 mM Na2HPO4, 20 mM NaCl
The target of data set [1] is T1, EmrE^(W63, L51I), natural abundance (E. coli, UniProt P23895 1-110, W31F | W45F | W76F | L51I).
T1 construct: EmrE, small multidrug resistance (SMR) transporter of E. coli; EmrE^W63 background with L51I; also called natural abundance EmrE^(W63, L51I); source: E. coli BL21(DE3), purified (amylose column, TEV cleavage, SEC in DDM)
T1 sequence: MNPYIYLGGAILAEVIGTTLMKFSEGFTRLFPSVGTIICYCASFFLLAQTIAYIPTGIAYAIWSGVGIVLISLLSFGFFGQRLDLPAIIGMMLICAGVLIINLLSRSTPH
The note with it: both partners purified.

Data set [2] addresses T2, EmrE^W63 (EmrE W31F/W45F/W76F), natural abundance (E. coli, UniProt P23895 1-110, W31F | W45F | W76F).
T2 construct: EmrE, small multidrug resistance (SMR) transporter of E. coli; only Trp63 kept of the four tryptophans; NMR-silent partner in the mixed (heterodimer) samples; reconstituted in 14:0-PC/6:0-PC bicelles; also called unlabeled EmrE^W63; natural abundance EmrE^W63; source: E. coli BL21(DE3), LB medium, purified (amylose column, TEV cleavage, SEC in DDM)
T2 sequence: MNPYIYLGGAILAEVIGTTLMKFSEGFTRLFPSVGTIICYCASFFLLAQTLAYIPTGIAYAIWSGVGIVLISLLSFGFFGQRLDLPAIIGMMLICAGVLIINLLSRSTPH
To be noted: both partners purified.

In data set [3] the target is T3, EmrE^(W63, E14Q), natural abundance (E. coli, UniProt P23895 1-110, W31F | W45F | W76F | E14Q).
T3 construct: EmrE, small multidrug resistance (SMR) transporter of E. coli; EmrE^W63 background with E14Q; also called natural abundance EmrE^(W63, E14Q); source: E. coli BL21(DE3), purified (amylose column, TEV cleavage, SEC in DDM)
T3 sequence: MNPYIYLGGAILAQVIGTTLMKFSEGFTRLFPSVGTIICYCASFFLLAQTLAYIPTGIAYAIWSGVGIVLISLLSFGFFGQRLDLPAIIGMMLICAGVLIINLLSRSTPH
To be noted: both partners purified.

Data set [4] deals with the molecule itself.
Data set [5] has as its target B2. The note with it: both partners purified.

B1: 5FW-EmrE^W63 (EmrE W31F/W45F/W76F labeled with 5-fluoro-tryptophan at Trp63) (natural protein, E. coli)
chain: MNPYIYLGGAILAEVIGTTLMKFSEGFTRLFPSVGTIICYCASFFLLAQTLAYIPTGIAYAIWSGVGIVLISLLSFGFFGQRLDLPAIIGMMLICAGVLIINLLSRSTPH
modifications: 5-fluoro-tryptophan at Trp63
notes: EmrE, small multidrug resistance (SMR) transporter of E. coli; only Trp63 kept of the four tryptophans; also called 5FW-labeled EmrE^W63; source: E. coli BL21(DE3), M9 medium with glyphosate and fluoro-indole, purified (amylose column, TEV cleavage, SEC in DDM)
Consider B1, for which the binding result in data set [1], in data set [2], in data set [3] and in data set [4] was “binds” in each case.
B2: the binding result in data set [2] and in data set [4] was “binds” throughout.

B3: 5FW-EmrE^(W63, E14Q) (natural protein, E. coli)
chain: MNPYIYLGGAILAQVIGTTLMKFSEGFTRLFPSVGTIICYCASFFLLAQTLAYIPTGIAYAIWSGVGIVLISLLSFGFFGQRLDLPAIIGMMLICAGVLIINLLSRSTPH
modifications: 5-fluoro-tryptophan at Trp63
notes: EmrE, small multidrug resistance (SMR) transporter of E. coli; EmrE^W63 background with E14Q; also called Gln14 mutant monomer; source: E. coli BL21(DE3), M9 medium with glyphosate and fluoro-indole, purified (amylose column, TEV cleavage, SEC in DDM)
Regarding B3, the binding result in data set [2] and in data set [4] was “binds” throughout.

B4: 5FW-EmrE^(W63, L51I) (natural protein, E. coli)
chain: MNPYIYLGGAILAEVIGTTLMKFSEGFTRLFPSVGTIICYCASFFLLAQTIAYIPTGIAYAIWSGVGIVLISLLSFGFFGQRLDLPAIIGMMLICAGVLIINLLSRSTPH
modifications: 5-fluoro-tryptophan at Trp63
notes: EmrE, small multidrug resistance (SMR) transporter of E. coli; EmrE^W63 background with L51I; source: E. coli BL21(DE3), M9 medium with glyphosate and fluoro-indole, purified (amylose column, TEV cleavage, SEC in DDM)
Take B4: the binding result in data set [2], in data set [5] and in data set [4] was “binds” throughout.
